Measured values published in patent US20110275122A1 (Amgen, published 2011).
Where a chain is given by its changes, count along the chain named.

T1: human mpl receptor (human, UniProt P40238 26-635)
T1 sequence (looked up): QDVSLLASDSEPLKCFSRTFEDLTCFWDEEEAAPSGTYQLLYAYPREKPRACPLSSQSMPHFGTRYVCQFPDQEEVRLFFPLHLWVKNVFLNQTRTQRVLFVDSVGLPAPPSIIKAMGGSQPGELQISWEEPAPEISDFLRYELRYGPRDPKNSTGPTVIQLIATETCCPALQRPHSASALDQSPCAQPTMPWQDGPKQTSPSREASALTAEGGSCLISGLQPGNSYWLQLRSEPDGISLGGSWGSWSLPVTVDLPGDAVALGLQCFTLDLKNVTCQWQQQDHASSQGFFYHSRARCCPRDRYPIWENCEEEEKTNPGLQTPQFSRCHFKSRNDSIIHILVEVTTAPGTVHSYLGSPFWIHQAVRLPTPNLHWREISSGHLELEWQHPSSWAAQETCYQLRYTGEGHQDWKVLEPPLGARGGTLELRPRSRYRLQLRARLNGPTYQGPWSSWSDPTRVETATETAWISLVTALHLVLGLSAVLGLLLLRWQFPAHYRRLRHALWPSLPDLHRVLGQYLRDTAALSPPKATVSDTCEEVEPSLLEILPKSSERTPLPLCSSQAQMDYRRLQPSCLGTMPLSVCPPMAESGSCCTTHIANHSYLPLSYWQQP

T2: c-mpl receptor (Homo sapiens (Human), UniProt P40238 26-491, The MPL used for panning was biotinylated; the biotin site is not stated and is not carried by the letters.)
T2 construct: also called TPO receptor
T2 sequence: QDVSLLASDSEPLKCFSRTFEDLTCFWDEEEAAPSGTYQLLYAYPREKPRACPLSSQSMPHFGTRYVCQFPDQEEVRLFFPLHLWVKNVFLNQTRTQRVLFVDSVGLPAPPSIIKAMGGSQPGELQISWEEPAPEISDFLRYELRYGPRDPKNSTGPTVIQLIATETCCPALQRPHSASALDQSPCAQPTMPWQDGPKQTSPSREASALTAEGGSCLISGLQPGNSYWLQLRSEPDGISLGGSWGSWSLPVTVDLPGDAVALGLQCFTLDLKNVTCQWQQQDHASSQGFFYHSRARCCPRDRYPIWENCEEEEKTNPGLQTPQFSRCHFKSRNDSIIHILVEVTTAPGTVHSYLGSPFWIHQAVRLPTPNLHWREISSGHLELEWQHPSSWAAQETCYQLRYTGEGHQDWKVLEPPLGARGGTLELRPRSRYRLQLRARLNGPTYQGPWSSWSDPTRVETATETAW

B1: Fc-Loop (Sym) (SEQ ID NO: 9) (Fc fusion)
chain: MDKTHTCPPCPAPELLGGPSVFLFPPKPKDTLMISRTPEVTCVVVDVSHEDPEVKFNWYVDGVEVHNAKTKPREEQYNSTYRVVSVLTVLHQDWLNGKEYKCKVSNKALPAPIEKTISKAKGQPREPQVYTLPPSRDELGGQGCSSGGPTLREWQQCRRMQHSGGTKNQVSLTCLVKGFYPSDIAVEWESNGQPENNYKTTPPVLDSDGSFFLYSKLTVDKSRWQQGNVFSCSVMHEALHNHYTQKSLSLSPGK
B2: Fc-Loop (Sym)(SEQ ID NO: 244) (Fc fusion)
chain: B1 chain with M160A
B3: Fc-Loop (Sym) (SEQ ID NO: 243) (Fc fusion)
chain: B1 chain with R158V
B4: Fc-Loop (Asym) (SEQ ID NO: 9) (Fc fusion)
chain: MDKTHTCPPCPAPELLGGPSVFLFPPKPKDTLMISRTPEVTCVVVDVSHEDPEVKFNWYVDGVEVHNAKTKPREEQYNSTYRVVSVLTVLHQDWLNGKEYKCKVSNKALPAPIEKTISKAKGQPREPQVYTLPPSRDELGGGGQGCSSGGPTLREWQQCRRMQHSGGTKNQVSLTCLVKGFYPSDIAVEWESNGQPENNYKTTPPVLDSDGSFFLYSKLTVDKSRWQQGNVFSCSVMHEALHNHYTQKSLSLSPGK
B5: Fc-Loop (Asym) (SEQ ID NO: 243) (Fc fusion)
chain: B4 chain with R160V
B6: SEQ ID NO: 336 (peptide)
peptide: IEGPTLHEWLRQRRQHS
B7: SEQ ID NO: 310 (peptide)
peptide: IEGWNPWRGAASRV
B8: SEQ ID NO: 314 (peptide)
peptide: IEGMVKLGVIRLLVL
B9: SEQ ID NO: 305 (peptide)
peptide: IAQVRMLGRFTLLVLSRARAASTQLSFQHSICAQIEGGAQTQWDAARA
B10: SEQ ID NO: 304 (peptide)
peptide: IEGQEPTRLRLQMDRHS
B11: SEQ ID NO: 332 (peptide)
peptide: IEGPTLHEWLAERRKHS
B12: SEQ ID NO: 294 (peptide)
peptide: IEGEALVFWWRVRGGHS
B13: SEQ ID NO: 303 (peptide)
peptide: IEGFVGTVDWRQGRPHS
B14: SEQ ID NO: 316 (peptide)
peptide: IEVWQSHWYQAARALESTSSRLLPMRPPPSICAQIEGPTLPQRMAARA
B15: SEQ ID NO: 325 (peptide)
peptide: IEGPTFKQWQRWLKYHS
B16: SEQ ID NO: 306 (peptide)
peptide: IEGEIWAGPGAARA
B17: SEQ ID NO: 315 (peptide)
peptide: IEGPTFKQWQAWRRWHS
B18: SEQ ID NO: 311 (peptide)
peptide: IEGWTRRQWLAARA
B19: SEQ ID NO: 308 (peptide)
peptide: IEGSYRERQQAARA
B20: SEQ ID NO: 333 (peptide)
peptide: IEGPTLHEWLALLRSHS
B21: SEQ ID NO: 320 (peptide)
peptide: IEGPTFKQWQLMGFPHS
B22: SEQ ID NO: 324 (peptide)
peptide: IEGWQEGRQSAARA
B23: SEQ ID NO: 326 (peptide)
peptide: IEGNYWFWQQVGQENTLSREWIQTLGQKYWYRPPSICAQIEGWSRHQHYSAMSGHS
B24: SEQ ID NO: 319 (peptide)
peptide: IEGPTFKQWQKLRLGHS
B25: SEQ ID NO: 335 (peptide)
peptide: IEGPTLHEWLLYRRAHS
B26: SEQ ID NO: 313 (peptide)
peptide: IEGPTFKQWQAMRRHS
B27: SEQ ID NO: 334 (peptide)
peptide: IEGPTLHEWLAQRREHS
B28: SEQ ID NO: 329 (peptide)
peptide: IEGPTFKQWQRLRKNHS
B29: SEQ ID NO: 307 (peptide)
peptide: IEGEALVFWWAARA
B30: SEQ ID NO: 322 (peptide)
peptide: IEGPTFKQWQAMRKNHS
B31: SEQ ID NO: 323 (peptide)
peptide: IEGPTFKQWQKWRLSHS
B32: SEQ ID NO: 297 (peptide)
peptide: IEGWTWQFYALPRGDHS
B33: SEQ ID NO: 321 (peptide)
peptide: IEGWIWRQWLMQTLWHS
B34: SEQ ID NO: 327 (peptide)
peptide: IEGPTFKQWQLWRLQHS
B35: SEQ ID NO: 302 (peptide)
peptide: IEGRHYQKWPARRLGHS
B36: SEQ ID NO: 331 (peptide)
peptide: IEGPSLPEWLHVWRHHS
B37: SEQ ID NO: 318 (peptide)
peptide: IEGPTFKQWQALRKRHS
B38: SEQ ID NO: 330 (peptide)
peptide: IEGLLSQLWQAARA

These binders were tested against T1, human mpl receptor (assay: cell-based or functional assay).

EC50 on 32Dc123/Mpl [pM] | Binder
15 | B1
12 | B2
10 | B3
13 | B4
6 | B5

The binders below were run against T2, c-mpl receptor (assay: phage-ELISA).

Relative activity | Binder
64.5 | B6
33.9 | B7
28.3 | B8
47.4 | B9
48.3 | B10
88.4 | B11
73.9 | B12
49.8 | B13
24.9 | B14
13.5 | B15
46.5 | B16
28.1 | B17
33.3 | B18
35.2 | B19
80.7 | B20
17.8 | B21
13.8 | B22

Relative activity | Binder
13.2 | B23
17.9 | B24
73.7 | B25
28.4 | B26
75.9 | B27
12.1 | B28
40.3 | B29
16.4 | B30
14.7 | B31
63.2 | B32
16.4 | B33
12.6 | B34
52 | B35
117 | B36
21.6 | B37
7.11 | B38

Target: T1, human mpl receptor
Test: cell-based or functional assay
Remark: another data set of the same source

In vitro EC50 [pM] | Binder
13.7 | B1
9.9 | B3
12.7 | B4
5.7 | B5
